Reference: patent publication US20040209330A1 (ZymoGenetics, published 2004)
Several values for one entry are separate records, joined by “and”; a condition that tells them apart may be missing. Equal values may be shown once.

Biological target: T1, CRF2-4/IL-22RA heterodimeric receptor on BaF3/CRF2-4/IL-22RA cells (human, UniProt Q08334 20-325, limits assumed)
T1 sequence 1: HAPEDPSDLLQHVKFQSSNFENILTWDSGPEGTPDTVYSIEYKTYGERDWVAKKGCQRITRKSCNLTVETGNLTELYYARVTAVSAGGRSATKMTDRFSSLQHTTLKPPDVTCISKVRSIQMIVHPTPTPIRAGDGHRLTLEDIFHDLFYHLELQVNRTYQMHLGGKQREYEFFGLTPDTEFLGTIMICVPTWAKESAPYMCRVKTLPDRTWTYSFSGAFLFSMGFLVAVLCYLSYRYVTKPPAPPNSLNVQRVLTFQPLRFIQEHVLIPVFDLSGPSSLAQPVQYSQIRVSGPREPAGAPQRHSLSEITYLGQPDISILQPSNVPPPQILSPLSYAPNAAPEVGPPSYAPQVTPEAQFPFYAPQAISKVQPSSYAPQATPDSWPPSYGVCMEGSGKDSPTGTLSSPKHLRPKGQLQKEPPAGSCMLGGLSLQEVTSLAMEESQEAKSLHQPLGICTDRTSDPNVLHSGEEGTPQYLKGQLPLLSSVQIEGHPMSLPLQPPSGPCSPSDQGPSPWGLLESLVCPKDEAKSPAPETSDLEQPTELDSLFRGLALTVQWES
T1 sequence 2: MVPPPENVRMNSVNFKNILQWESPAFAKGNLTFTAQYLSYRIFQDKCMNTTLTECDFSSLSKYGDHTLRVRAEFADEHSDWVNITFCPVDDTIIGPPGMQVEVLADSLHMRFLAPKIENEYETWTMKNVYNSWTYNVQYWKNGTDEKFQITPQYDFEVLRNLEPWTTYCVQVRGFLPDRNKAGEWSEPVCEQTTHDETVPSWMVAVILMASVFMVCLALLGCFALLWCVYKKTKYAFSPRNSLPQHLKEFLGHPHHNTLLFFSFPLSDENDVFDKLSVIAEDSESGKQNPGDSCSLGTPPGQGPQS
Test: cell-based or functional assay

B1: IL-22-CEE (human IL-22 polypeptide with C-terminal GluGlu (EE) tag, purified from BHK 570 cells) (ligand)
chain: LLLALLVQGGAAAPISSHCRLDKSNFQQPYITNRTFMLAKEASLADNNTDVRLIGEKLFHGVSMSERCYLMKQVLNFTLEEVLFPQSDRFQPYMQEVVPFLARLSNRLSTCHIEGDDLHIQRNVQKLKDTVKKLGESGEIKAIGELEYMPME
  proliferation of BaF3/CRF2-4/IL-22RA cells (Alamar Blue): ~15 fold over background and 2 fold induction
